Measured values taken from patent US20240376151A1, “STAPLED PEPTIDES AND METHODS THEREOF” (FOG PHARMACEUTICALS, INC., priority 2022, published 2024).

Molecular target: T1, beta-catenin (Homo sapiens, UniProt P35222)
T1 construct: made in house; host or cells: E. coli BL21 (DE3) pLysS
T1 sequence (P35222 134-665): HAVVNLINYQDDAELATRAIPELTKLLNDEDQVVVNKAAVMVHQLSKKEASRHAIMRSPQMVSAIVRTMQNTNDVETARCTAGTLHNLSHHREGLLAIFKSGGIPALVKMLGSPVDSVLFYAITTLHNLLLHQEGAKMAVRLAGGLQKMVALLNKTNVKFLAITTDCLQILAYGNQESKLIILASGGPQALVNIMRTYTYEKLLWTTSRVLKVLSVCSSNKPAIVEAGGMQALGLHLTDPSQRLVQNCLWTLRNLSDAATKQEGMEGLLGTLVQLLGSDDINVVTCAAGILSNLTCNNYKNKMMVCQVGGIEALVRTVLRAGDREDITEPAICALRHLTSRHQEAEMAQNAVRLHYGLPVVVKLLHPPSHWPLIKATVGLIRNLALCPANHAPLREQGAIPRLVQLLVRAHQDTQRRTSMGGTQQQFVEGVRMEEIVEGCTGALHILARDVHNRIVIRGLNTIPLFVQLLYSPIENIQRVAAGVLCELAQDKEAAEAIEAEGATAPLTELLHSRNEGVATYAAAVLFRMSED
Assay: Phage Library Screening with NGS, beta-catenin
Type: binding
Conditions: for Target Concentration 10 (phage screen NGS readout): beta-catenin target concentration 10; for Target Concentration 10 (phage screen NGS readout) / Target Concentration 30 (phage screen NGS readout) / Target Concentration 100 (phage screen NGS readout) / Target Concentration 300 (phage screen NGS readout): no competitor; for Target Concentration 30 (phage screen NGS readout): beta-catenin target concentration 30; for Target Concentration 100 (phage screen NGS readout): beta-catenin target concentration 100; for Target Concentration 300 (phage screen NGS readout): beta-catenin target concentration 300; for Target Concentration 1000 (phage screen NGS readout): beta-catenin target concentration 1000

| Compound | Target Concentration BLANK (phage screen NGS readout) (first column) | Target Concentration BLANK (phage screen NGS readout) (fourth column) | Target Concentration BLANK (phage screen NGS readout) (second column) | Target Concentration BLANK (phage screen NGS readout) (third column) | Target Concentration 10 (phage screen NGS readout) | Target Concentration 30 (phage screen NGS readout) | Target Concentration 100 (phage screen NGS readout) | Target Concentration 300 (phage screen NGS readout) | Target Concentration 1000 (phage screen NGS readout) (first 1000 column) | Target Concentration 1000 (phage screen NGS readout) (second 1000 column) |
| --- | --- | --- | --- | --- | --- | --- | --- | --- | --- | --- |
| CC(=O)N[C@@H](CC(=O)O)C(=O)N1CCC[C@H]1C(=O)N[C@@H](C)C(=O)N[C@@H](CC(C)C)C(=O)N[C@@H](Cc1c[nH]c2ccccc12)C(=O)N[C@@H](CCC(N)=O)C(=O)N[C@@H](CS)C(=O)N[C@@H](CCC(=O)O)C(=O)N[C@@H](Cc1c[nH]cn1)C(=O)N[C@@H](C)C(=O)N[C@@H](C)C(=O)N[C@@H](CC(C)C)C(=O)N[C@@H](CC(C)C)C(=O)N[C@@H](CS)C(=O)N[C@@H](CC(=O)O)C(=O)N[C@H](C(=O)N[C@@H](Cc1c[nH]cn1)C(N)=O)C(C)C | 0 | 0 | 2 | 1 | 13 | 27 | 122 | 158 | 246 | 246 |
| DPAWILCDWAAMHCELV | 0 | 0 | 0 | 0 | 0 | 0 | 2 | 3 | 1 | 18 |
| DPASWRCEHAALNCQID | 0 | 0 | 0 | 0 | 0 | 6 | 20 | 18 | 21 | 57 |
| DPAHWVCEHAALNCDQN | 0 | 0 | 1 | 0 | 0 | 2 | 47 | 96 | 104 | 118 |
| DPAHWSCEWAAEHCRLI | 0 | 0 | 0 | 0 | 0 | 1 | 0 | 31 | 19 | 64 |
| DPAVLQCYEAAFICEYM | 0 | 0 | 0 | 0 | 0 | 0 | 1 | 6 | 4 | 5 |
| DPADDFCMWAAEHCELL | 0 | 0 | 0 | 1 | 10 | 12 | 81 | 226 | 273 | 227 |
| DPAILNCHVAAWNCHSF | 0 | 0 | 0 | 0 | 0 | 0 | 1 | 8 | 4 | 23 |
| DPAVHRCFWAAEHCDLI | 0 | 0 | 2 | 0 | 0 | 2 | 11 | 86 | 95 | 62 |
| DPAILDCQIAAIECEFA | 0 | 1 | 0 | 0 | 0 | 22 | 76 | 68 | 139 | 56 |
| DPAMIQCQWAAEHCELI | 0 | 0 | 1 | 0 | 0 | 0 | 4 | 33 | 19 | 42 |
| DPAEHDCMLAAHFCRHF | 0 | 0 | 2 | 0 | 8 | 55 | 242 | 194 | 337 | 260 |
| DPAIMACYEAAYLCDYI | 1 | 1 | 0 | 0 | 2 | 4 | 29 | 85 | 111 | 150 |
| DPASWDCDHAALLCTLD | 0 | 1 | 0 | 0 | 3 | 6 | 86 | 257 | 283 | 238 |
